This is an account of results in patent US10444224B2, “Method for RNA detection and quantification” (Cornell University, priority 2011, dated 2019).

Series [1] has as its system HEK293T cells expressing 5S-Spinach. The series is described as follows: Live mammalian cell imaging of Spinach-tagged 5S RNA. The format is cell-based, human. The procedure:
HEK293 cells cultured on 24-well glass-bottom dishes were transfected with 0.2 μg of pAV-5S construct expressing full length human 5S RNA from its endogenous promoter fused through its 3′ end with either a control sequence (lambda fragment ˜400 nt) or the Spinach aptamer sequence using FuGene 6 (Roche) per manufacturer's instructions. Imaging experiments were performed 48 hours after transfection. Thirty minutes prior to experiment, HEK293 cell media was replaced with imaging media (DMEM with no phenol red or vitamins and supplemented with 25 mM HEPES, 5 mM MgSO4, and 10 μg/ml Hoechst 33342) and 20 μM DFHBI or vehicle were added to the cells to promote RNA-fluorophore complex formation. To induce stress granule formation, cells were treated with 100 mM MgSO4 or 600 mM sucrose for 30 minutes prior to imaging. Live fluorescence images of HEK293 cells were taken with a CoolSnap HQ2 CCD camera through a 100× oil objective mounted on a Nikon TE2000 microscope and analyzed with the NIS-Elements software. A filter cube typically used for fluorescein/EGFP with sputter coated excitation filter 470/40, dichroic mirror 495 (long pass), and emission filter 525/50 (Chroma Technology) was used to detect Spinach.

For series [2] the following is noted: literature value used as reference; cited from earlier work.
A short description of series [3]: Tolerance of Spinach stem-loop 2 to mutation, assayed by DFHBI fluorescence. The format is biochemical. The procedure: Secondary structure prediction was performed using Mfold online software. Mutated and truncated RNAs were created by ordering single stranded DNA templates (Integrated DNA Technologies) with the desired mutations or truncations and PCR amplifying these sequences to create double stranded DNA templates using primers which included a 5′ T7 promoter sequence. PCR products were then purified with PCR purification columns (Qiagen) and used as templates for in vitro T7 transcription reactions (Epicentre).
To determine if stem-loop 2 primarily has a structural role in Spinach, mutations were introduced at the stem-loop 2 positions shown in FIG. 11A to test the tolerance of Spinach to mutations at these positions. This was assayed by DFHBI fluorescence. In these experiments, the minimized Spinach structure (SEQ ID NO: 8) in which stem-loop 2 is predicted to sit adjacent to the large internal loop (FIG. 11A). […] To determine if stem-loop 2 can be swapped with a different stem-loop with similar stability without perturbing Spinach-induced DFHBI fluorescence, the UUCG loop sequence was replaced with GAAA and the 4-base pair stem was replaced with a different but still complementary 4-base pair stem (FIG. 11A, SEQ ID NO: 9). […] However, when mismatched bases were inserted in the stem region to prevent the formation of a duplex, DFHBI fluorescence was lost (FIG. 11B).

The nature of series [4]: Excitation and emission spectra of the 24-2-DFHBI complex. The class given is physicochemical. The following applies: 24-2 bound to DFHBI. An excerpt: Unless otherwise stated, all chemistry reagents were purchased from Acros Organics and all cell culture reagents were purchased from Invitrogen. Commercially available starting reagents were used without further purification. DFHBI was synthesized as described in PCT Application Publ. No. WO/2010/096584 to Jaffrey and Paige; Paige and Jaffrey, “RNA Mimics of Green Fluorescent Protein,” Science 333(6042):642-646 (2011), each of which is hereby incorporated by reference in its entirety. Flash chromatography was conducted with 200-400 mesh silica gel 60 (EMD) and with ACS or HPLC grade solvents (Fisher). NMR spectra were recorded on a Bruker DMX-500 spectrometer at 500 MHz. Chemical shifts were reported as parts per million (ppm) downfield from an internal tetramethylsilane standard ([…] for ^1H NMR) or from solvent references. […] UPLC was performed at a flow rate of 0.5 ml/min (monitored with a PDA from 210-500 nm) using a Waters C18 column. Absorbance spectra were recorded with a Thermo Scientific NanoDrop 2000 spectrophotometer with cuvette capability. Fluorescence excitation and emission spectra were measured with a Perkin Elmer LS-55 fluorescence spectrometer.
After eight rounds of SELEX at pH 8.0 using DFHBI-agarose, clones were identified that switched on DFHBI fluorescence. […]

A short description of series [5]: Magnesium dependence of 24-2-DFHBI fluorescence. The format is biochemical. The source says:
FIGS. 3A-C illustrate the secondary structures of three RNAs: the original 24-2 structure (3A, SEQ ID NO: 5), a minimized structure 24-2-min (3B, SEQ ID NO: 7), and a first generation derivative of 24-2, designated “Spinach” (3C, SEQ ID NO: 6). RNA structure is shown as predicted by Mfold web-based software (Zuker, “Mfold Web Server for Nucleic Acid Folding and Hybridization Prediction,” Nucl. Acids Res. 31(13): 3406-3415 (2003), which is hereby incorporated by reference in its entirety). In FIG. 3A, bases that could be removed without significant loss in fluorescence are indicated in purple, which includes several bases from the largest loop and largest stem. A-U, G-U and any mismatched base pairs were mutated to G-C base pairs and tested for their effect on 24-2 fluorescence. G-C mutations that reduced 24-2 fluorescence are indicated in red, those which had no effect are indicated by asterisk (*), and those which increased the fluorescence of 24-2 are indicated in green. Base substitutions indicated by an asterisk (*) helped to validate structural predictions because substituting one base pair for another (e.g. A-U for G-C) had negligible effect or increased fluorescence. […] FIG. 3D illustrates the magnesium dependence of 24-2-DFHBI fluorescence. The fluorescence of the 24-2-DFHBI complex was measured at pH 7.4 in the presence of increasing magnesium concentrations. […]

The nature of series [6]: Spinach-based RNA sensor fluorescence in response to guanine. The class given is biochemical.

Where a chain is given by its changes, count along the chain named. Entries after “also recorded” stand apart in the source; their conditions may differ.

Take `CCC(=C/[C@H](C)C/C=C/C(C)=C/[C@@H](C)C(=O)[C@@H](C)[C@H](O)[C@@H](C)C/C(C)=C/C(=O)O)/C=C/[C@@H]1OC(=O)C=C[C@@H]1C` [leptomycin B]: the “effect on 5S-Spinach localization” value in series [1] (after washout of ML-60218) was 5S-Spinach accumulates in the nucleus.

Take lucifer yellow: the “absolute quantum yield of reference fluorophore” value in series [2] was 0.21.

Consider `Cc1c(-c2cc(NS(=O)(=O)c3ccccc3Cl)n(C)n2)sc2ccc(Cl)cc12` [ML-60218], for which the “effect on 5S-Spinach fluorescence” value in series [1] (Pol III inhibitor treatment) is recorded as “reduces 5S-Spinach fluorescence to baseline levels”.

On to “SEQ ID NO: 16: mismatch stem-loop structure introduced into Spinach; three mismatched nucleotides prevent duplex formation (AUGCUUCGGACG; listed as RNA, chemistry not given here)”, for which, in series [3], the “DFHBI fluorescence of stem-loop 2 variant relative to Spinach / original stem-loop 2” value is reported as “reduces fluorescence intensity to baseline”.

Take `Cc1cc2cc3cc(C)c(N)cc3nc2cc1N` [acridine yellow]: the “absolute quantum yield of reference fluorophore” value in series [2] is recorded as 0.47.

B1: 24-2: RNA aptamer clone from SELEX that switches on DFHBI fluorescence (nucleic acid)
chain: GGGAGACGCAACUGAAUGAAAUGGUGAAGGACGGGUCCAGGUGUGGCUGCUUCGGCAGUGCAGCUUGUUGAGUAGAGUGUGAGCUCCGUAACUAGUCGCGUCAC
modifications: listed as RNA, chemistry not given here
notes: RNA aptamer clone from SELEX that switches on DFHBI fluorescence
With B1, in series [4], the emission peak is given as 501 nm and the excitation peak is on record as 469 nm. Moreover, the “fraction of maximal fluorescence” value in series [5] (0.1 mM magnesium) is listed as “greater than 50%”. Besides, the “magnesium concentration at maximal fluorescence” value in series [5] (pH 7.4) stood at 3 mM.

B2: SEQ ID NO: 8: derivative (minimized) Spinach sequence containing a shortened stem-loop 2 (nucleic acid)
chain: GACGCGACUGAAUGAAAUGGUGAAGGACGGGUCCAGCUGCUUCGGCAGCUUGUUGAGUAGAGUGUGAGCUCCGUAACUAGUCGCGUC
modifications: listed as RNA, chemistry not given here
B2: in series [3], the “DFHBI fluorescence of stem-loop 2 variant relative to Spinach / original stem-loop 2” value was “essentially identical fluorescence”.

B3: SEQ ID NO: 9: Spinach derivative with a replacement stem-loop at stem-loop 2 (nucleic acid)
chain: B2 chain with C37G, U38C, G39A, U41G, U42A, C43A, G44A, C46U, A47G, G48C
modifications: listed as RNA, chemistry not given here
Take B3: in series [3], the “DFHBI fluorescence of stem-loop 2 variant relative to Spinach / original stem-loop 2” value was “did not reduce DFHBI fluorescence; also recorded: nearly identical fluorescence intensities”.

B4: guanine sensor: Spinach-based turn-on RNA sensor for guanine (nucleic acid)
chain: GACGCGACUGAAUGAAAUGGUGAAGGACGGGUCCAGAUAAUCGCGUGGAUAUGGCACGCAAGUUUCUACCGGGCACCGUAAAUGUCCGACUCUUGUUGAGUAGAGUGUGAGCUCCGUAACUAGUCGCGUC
modifications: chemistry not given here
The term EC50 denotes the midpoint of the concentration-response curve. For the molecule B4, the “increase in fluorescence in the presence of guanine” value in series [6] (0.1 μM RNA, 10 μM DFHBI, 100 μM Gua, versus no guanine) is given as 32 fold. The EC50 in series [6] (dose-response, 10 μM fluorophore, read-out: half-maximal fluorescence (EC50), guanine) was determined as 1500 nM.
